Reference: US20030216563A1 (Scripps Research, published 2003)

T1: Cdc25 (Schizosaccharomyces pombe, UniProt P06652 1-596)
T1 construct: Endogenous protein co-purified from S. pombe cells and detected with antibodies to Cdc25
T1 sequence (looked up): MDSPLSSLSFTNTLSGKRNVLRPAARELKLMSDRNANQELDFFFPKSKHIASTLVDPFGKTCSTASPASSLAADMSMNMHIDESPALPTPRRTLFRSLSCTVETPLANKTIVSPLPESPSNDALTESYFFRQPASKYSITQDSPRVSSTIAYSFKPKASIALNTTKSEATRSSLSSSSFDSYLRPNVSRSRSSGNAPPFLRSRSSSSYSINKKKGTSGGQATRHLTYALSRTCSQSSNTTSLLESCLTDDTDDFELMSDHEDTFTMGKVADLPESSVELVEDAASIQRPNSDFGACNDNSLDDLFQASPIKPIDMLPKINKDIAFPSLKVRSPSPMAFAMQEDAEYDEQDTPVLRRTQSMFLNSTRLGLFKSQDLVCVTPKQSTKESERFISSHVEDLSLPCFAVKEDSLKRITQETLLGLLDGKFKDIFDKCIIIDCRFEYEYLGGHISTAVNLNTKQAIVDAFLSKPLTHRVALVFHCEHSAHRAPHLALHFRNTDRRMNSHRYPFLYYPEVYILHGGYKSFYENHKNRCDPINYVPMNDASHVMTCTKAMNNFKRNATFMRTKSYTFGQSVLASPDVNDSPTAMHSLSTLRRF

T2: Weel (Schizosaccharomyces pombe, UniProt P07527 1-877)
T2 construct: Endogenous protein co-purified from S. pombe cells and detected with antibodies to Weel; also called kinase Weel; native Weel protein
T2 sequence (looked up): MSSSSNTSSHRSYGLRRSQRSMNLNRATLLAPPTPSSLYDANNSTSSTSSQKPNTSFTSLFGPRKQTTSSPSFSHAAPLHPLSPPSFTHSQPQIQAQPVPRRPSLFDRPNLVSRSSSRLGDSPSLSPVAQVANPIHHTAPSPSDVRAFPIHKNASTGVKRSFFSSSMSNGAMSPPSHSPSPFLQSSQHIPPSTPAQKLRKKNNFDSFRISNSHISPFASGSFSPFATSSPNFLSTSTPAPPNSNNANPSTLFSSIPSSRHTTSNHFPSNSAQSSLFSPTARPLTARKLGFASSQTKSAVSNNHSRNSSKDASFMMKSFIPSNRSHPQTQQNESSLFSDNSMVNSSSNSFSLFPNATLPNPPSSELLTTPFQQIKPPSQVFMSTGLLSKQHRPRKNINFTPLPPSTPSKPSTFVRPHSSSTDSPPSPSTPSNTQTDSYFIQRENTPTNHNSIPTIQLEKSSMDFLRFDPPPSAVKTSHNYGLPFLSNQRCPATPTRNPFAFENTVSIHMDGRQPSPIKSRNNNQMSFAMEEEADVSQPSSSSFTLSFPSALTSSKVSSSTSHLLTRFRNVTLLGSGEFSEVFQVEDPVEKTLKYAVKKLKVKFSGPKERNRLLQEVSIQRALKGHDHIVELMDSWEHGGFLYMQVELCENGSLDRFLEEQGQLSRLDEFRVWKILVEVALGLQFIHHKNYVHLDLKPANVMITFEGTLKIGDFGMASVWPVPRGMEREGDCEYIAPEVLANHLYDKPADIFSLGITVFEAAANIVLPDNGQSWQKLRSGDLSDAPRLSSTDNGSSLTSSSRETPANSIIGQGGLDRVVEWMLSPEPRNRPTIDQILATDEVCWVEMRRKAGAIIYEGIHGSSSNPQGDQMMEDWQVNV

B1: GST:Chk1 (other, Schizosaccharomyces pombe, UniProt P34208 1-496, looked up)
chain: MAQKLDNFPYHIGREIGTGAFASVRLCYDDNAKIYAVKFVNKKHATSCMNAGVWARRMASEIQLHKLCNGHKNIIHFYNTAENPQWRWVVLEFAQGGDLFDKIEPDVGIDEDVAQFYFAQLMEGISFMHSKGVAHRDLKPENILLDYNGNLKISDFGFASLFSYKGKSRLLNSPVGSPPYAAPEITQQYDGSKVDVWSCGIILFALLLGNTPWDEAISNTGDYLLYKKQCERPSYHPWNLLSPGAYSIITGMLRSDPFKRYSVKHVVQHPWLTSSTPFRTKNGNCADPVALASRLMLKLRIDLDKPRLASSRASQNDSGFSMTQPAFKKNDQKELDRVEVYGALSQPVQLNKNIDVTEILEKDPSLSQFCENEGFIKRLAKKAKNFYEICPPERLTRFYSRASRETIIDHLYDSLRLLAISVTMKYVRNQTILYVNLHDKRKCLLQGVIELTNLGHNLELINFIKRNGDPLEWRKFFKNVVSSIGKPIVLTDVSQN
notes: Expressed in S. pombe from the integrated nmt1:GST:chk1+ construct; Migrates at ~80 kDa; not shown: glutathione-S-transferase
B2: GST:Cds1 (other, Schizosaccharomyces pombe, UniProt Q09170 1-460, looked up)
chain: MEEPEEATQATQEAPLHVSQNIAKQVVNNENVFMKLVMTRMLDGKTEVIPLTTDVHNGFWRFGRHKSCEVVLNGPRVSNFHFEIYQGHRNDSDESENVVFLHDHSSNGTFLNFERLAKNSRTILSNGDEIRIGLGVPKDEISFLCQVPVKHSRDSQKNMIKSENSHYEIIRTLGSGTFAVVKLAVEVNSGKWYAIKIINKRKILLTSSEKRATEMFQREIDILKSLHHPGVVQCHEIFENDDELFIVMEYVEGGDLMDFLIANGSIDEQDCKPLLKQLLETLLHLHKQGVTHRDIKPENILITNDFHLKISDFGLAKVIHGTGTFLETFCGTMGYLAPEVLKSKNVNLDGGYDDKVDIWSLGCVLYVMLTASIPFASSSQAKCIELISKGAYPIEPLLENEISEEGIDLINRMLEINPEKRISESEALQHPWFYTVSTHEHRTPPSSSEHEATEQLNSSS
notes: Expressed in S. pombe from the integrated nmt1:GST:cds1+ construct; Migrates at ~82 kDa; not shown: glutathione-S-transferase

What was measured:
Cdc25 [1] = molecular target: T1, Cdc25; test: GSH-Sepharose purification of GST fusion expressed in S. pombe, immunoblot
Procedure: (§1) FIG. 2D is a photograph of an analysis of proteins which illustrates that Weel interacts with GST:cds1⁺ but not GST:Chk1 in vivo. Strains carrying integrated nmt1:GST:chk1⁺ or nmt1:GST:cds1⁺ constructs were grown in minimal medium (EMM2) without thiamine at 30° C. for 16 hr to induce expression of GST fusion proteins. Cells were lysed and GST fusion proteins purified with GSH-Sepharose. After extensive washing, samples were resolved by 10% SDS-polyacrylamide gel electrophoresis and subjected to immunoblotting with antibodies to Weel, Cdc25 and GST. A ˜110 kDa protein corresponding to Weel was detected in the GST:Cds1 sample, whereas a ˜80 kDa protein corresponding to Cdc25 was detected in the GST:Chk1 sample. The ˜110 kDa protein was not detected in samples prepared from Δweel cells. GST:Cds1 and GST:Chk1 migrate at positions corresponding to ˜82 and ˜80 kDa, respectively.
(§2) As a control, a strain that expressed GST:Chk1 was used. The GST fusion proteins were purified with GSH-Sepharose and analyzed by immunoblotting. Cdc25 (but not Weel) associated with GST:Chk1, whereas Weel (but not Cdc25) associated with GST:Cds1 (FIG. 2D).

Weel [2] = molecular target: T2, Weel; test: GSH-Sepharose purification of GST fusion expressed in S. pombe, immunoblot with antibodies to Weel
Procedure: as §1, §2

Weel [3] = molecular target: T2, Weel; test: GSH-Sepharose purification of GST fusion expressed in S. pombe, immunoblot
Procedure: as §1, §2

Cdc25 [4] = molecular target: T1, Cdc25; test: GSH-Sepharose purification of GST fusion expressed in S. pombe, immunoblot with antibodies to Cdc25
Procedure: as §1, §2

| Binder | binding result (Cdc25 [1]) | binding result (Weel [2]) | binding result (Weel [3]) | binding result (Cdc25 [4]) |
| --- | --- | --- | --- | --- |
| B1 | binds | no binding | – | – |
| B2 | – | – | binds | no binding |
